Measured values published in article PMC8076310.

T1: Fc-GDF15 WT (knob-Fc-(G4S)5-GDF15 paired with hole-Fc, wildtype GDF15) (human) (UniProt Q99988)
T1 sequence (Q99988 whole entry, looked up): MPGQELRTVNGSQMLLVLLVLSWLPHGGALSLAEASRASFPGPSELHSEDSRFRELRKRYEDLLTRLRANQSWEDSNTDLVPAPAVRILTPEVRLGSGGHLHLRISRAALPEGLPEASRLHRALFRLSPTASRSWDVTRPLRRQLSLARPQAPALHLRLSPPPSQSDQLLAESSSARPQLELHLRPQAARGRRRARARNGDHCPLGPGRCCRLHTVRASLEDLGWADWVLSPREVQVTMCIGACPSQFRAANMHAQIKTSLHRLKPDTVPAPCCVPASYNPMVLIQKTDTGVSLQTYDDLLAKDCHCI

T2: Fc-GDF15 WT (wildtype Fc-GDF15 control; knob-Fc-(G4S)5-GDF15 paired with hole-Fc) (human) (UniProt Q99988)
T2 sequence (Q99988 whole entry, looked up): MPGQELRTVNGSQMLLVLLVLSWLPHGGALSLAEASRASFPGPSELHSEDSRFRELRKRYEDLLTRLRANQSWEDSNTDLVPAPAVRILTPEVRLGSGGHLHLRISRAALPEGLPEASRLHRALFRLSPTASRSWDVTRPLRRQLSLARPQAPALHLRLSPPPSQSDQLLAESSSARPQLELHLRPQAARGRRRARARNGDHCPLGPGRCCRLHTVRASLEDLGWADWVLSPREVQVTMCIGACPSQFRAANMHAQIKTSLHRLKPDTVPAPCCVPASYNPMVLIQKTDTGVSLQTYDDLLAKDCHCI

B1: human GFRAL extracellular domain (ECD), residues 19-351 (domain or fragment)
chain: SQTNNCTYLREQCLRDANGCKHAWRVMEDACNDSDPGDPCKMRNSSYCNLSIQYLVESNFQFKECLCTDDFYCTVNKLLGKKCINKSDNVKEDKFKWNLTTRSHHGFKGMWSCLEVAEACVGDVVCNAQLASYLKACSANGNPCDLKQCQAAIRFFYQNIPFNIAQMLAFCDCAQSDIPCQQSKEALHSKTCAVNMVPPPTCLSVIRSCQNDELCRRHYRTFQSKCWQRVTRKCHEDENCISTLSKQDLTCSGSDDCKAAYIDILGTVLQVQCTCRTITQSEESLCKIFQHMLHRKSCFNYPTLSNVKGMALYTRKHANKITLTGFHSPFNGE
B2: mouse GFRAL extracellular domain (ECD), residues 19-350 (domain or fragment)
chain: SQTNDCAHLIQKCLIDANGCEQSWRSMEDTCLTPGDSCKINNSLHCNLSIQALVEKNFQFKECLCMDDLHCTVNKLFGKKCTNKTDNMEKDNKDKWNLTTTPFYHGFKQMQSCLEVTEACVGDVVCNAQLALYLKACSANGNLCDVKHCQAAIRFFYQNMPFNTAQMLAFCDCAQSDIPCQQSKETLHSKPCALNIVPPPTCLSVIHTCRNDELCRTHYRTFQTECWPHITGKCHEDETCISMLGKQDLTCSGSESCRAAFLGTFGTVLQVPCACRGVTQAEEHVCMIFQHMLHSKSCFNYPTPNVKDISSYEKKNSKEITLTGFNSFFNGE
B3: Soluble human GFRAL extracellular domain (ECD) (receptor)
chain: SQTNNCTYLREQCLRDANGCKHAWRVMEDACNDSDPGDPCKMRNSSYCNLSIQYLVESNFQFKECLCTDDFYCTVNKLLGKKCINKSDNVKEDKFKWNLTTRSHHGFKGMWSCLEVAEACVGDVVCNAQLASYLKACSANGNPCDLKQCQAAIRFFYQNIPFNIAQMLAFCDCAQSDIPCQQSKEALHSKTCAVNMVPPPTCLSVIRSCQNDELCRRHYRTFQSKCWQRVTRKCHEDENCISTLSKQDLTCSGSDDCKAAYIDILGTVLQVQCTCRTITQSEESLCKIFQHMLHRKSCFNYPTLSNVKGMALYTRKHANKITLTGFHSPFNGE
B4: Soluble mouse GFRAL extracellular domain (ECD) (receptor)
chain: SQTNDCAHLIQKCLIDANGCEQSWRSMEDTCLTPGDSCKINNSLHCNLSIQALVEKNFQFKECLCMDDLHCTVNKLFGKKCTNKTDNMEKDNKDKWNLTTTPFYHGFKQMQSCLEVTEACVGDVVCNAQLALYLKACSANGNLCDVKHCQAAIRFFYQNMPFNTAQMLAFCDCAQSDIPCQQSKETLHSKPCALNIVPPPTCLSVIHTCRNDELCRTHYRTFQTECWPHITGKCHEDETCISMLGKQDLTCSGSESCRAAFLGTFGTVLQVPCACRGVTQAEEHVCMIFQHMLHSKSCFNYPTPNVKDISSYEKKNSKEITLTGFNSFFNGE

Experiments:
[1] = target: Fc-GDF15 Mutant 2 (A3N/N5T) (human); experiment: SPR; Biacore T200, 37 °C; Fc-GDF15 captured on anti-human IgG on a CM4 chip; GFRAL injected as analyte, two-fold series 25-1.56 nM (human) or 100-6.25 nM (murine), 60 s association, 120 s dissociation; 1:1 Langmuir model; duplicate
[2] = target: Fc-GDF15 Mutant 2A (A3N/N5T/L36H) (human); experiment: as above
[3] = target: Fc-GDF15 Mutant 2C (A3N/N5T/V98I) (human); experiment: as above
[4] = target: Fc-GDF15 Mutant 3 (R4N/G6T) (human); experiment: as above
[5] = target: Fc-GDF15 Mutant 3A (R4N/G6T/L36H) (human); experiment: as above
[6] = target: Fc-GDF15 Mutant 3B (R4N/G6T/L36R) (human); experiment: as above
[7] = target: Fc-GDF15 Mutant 3C (R4N/G6T/V98I) (human); experiment: as above
[8] = target: T1, Fc-GDF15 WT (knob-Fc-(G4S)5-GDF15 paired with hole-Fc, wildtype GDF15) (human); experiment: as above
[9] = target: Fc-GDF15 Mutant 2 (A3N/N5T) (human); experiment: SPR; Biacore T200, 37 °C; anti-human IgG amine-coupled on a CM4 chip captures Fc-GDF15; GFRAL ECD injected in two-fold dilutions (human 25 to 1.56 nM, murine 100 to 6.25 nM), 60 s association, 120 s dissociation; double referencing, 1:1 Langmuir model; duplicate
[10] = target: Fc-GDF15 Mutant 2A (A3N/N5T, L36H) (human); experiment: as above
[11] = target: Fc-GDF15 Mutant 2C (A3N/N5T/V98I) (human); experiment: as above
[12] = target: Fc-GDF15 Mutant 3 (R4N/G6T) (human); experiment: as above
[13] = target: Fc-GDF15 Mutant 3A (R4N/G6T, L36H) (human); experiment: as above
[14] = target: Fc-GDF15 Mutant 3B (R4N/G6T, L36R) (human); experiment: as above
[15] = target: Fc-GDF15 Mutant 3C (R4N/G6T, V98I) (human); experiment: as above
[16] = target: T2, Fc-GDF15 WT (wildtype Fc-GDF15 control; knob-Fc-(G4S)5-GDF15 paired with hole-Fc) (human); experiment: as above

Row | Binder | koff [1] [s⁻¹] | kon [1] [M⁻¹ s⁻¹] | koff [2] [s⁻¹] | kon [2] [M⁻¹ s⁻¹] | koff [3] [s⁻¹] | kon [3] [M⁻¹ s⁻¹] | koff [4] [s⁻¹] | kon [4] [M⁻¹ s⁻¹] | koff [5] [s⁻¹] | kon [5] [M⁻¹ s⁻¹] | koff [6] [s⁻¹] | kon [6] [M⁻¹ s⁻¹] | koff [7] [s⁻¹] | kon [7] [M⁻¹ s⁻¹] | koff [8] [s⁻¹] | kon [8] [M⁻¹ s⁻¹] | Kd [9] [µM] | Kd [10] [µM] | Kd [11] [µM] | Kd [12] [µM] | also measured
1 | B1 | 0.1 | 1e+07 | 0.039 | 6.47e+06 | 0.0574 | 1.03e+07 | 0.113 | 1e+07 | 0.0402 | 6.61e+06 | 0.0283 | 7.72e+06 | 0.0571 | 1.05e+07 | 0.12 | 1.07e+07 | – | – | – | – | –
2 | B2 | 0.372 | 1.52e+06 | 0.16 | 865000 | 0.179 | 1.88e+06 | 0.474 | 1.59e+06 | 0.2 | 1.13e+06 | 0.105 | 1.26e+06 | 0.188 | 1.69e+06 | 0.364 | 1.61e+06 | – | – | – | – | –
3 | B3 | – | – | – | – | – | – | – | – | – | – | – | – | – | – | – | – | 0.01 | 0.00603 | 0.00552 | 0.0112 | Kd [13]: 0.00609 µM; Kd [14]: 0.00368 µM; Kd [15]: 0.00544 µM; Kd [16]: 0.011 µM
4 | B4 | – | – | – | – | – | – | – | – | – | – | – | – | – | – | – | – | 0.245 | 0.186 | 0.0958 | 0.3 | Kd [13]: 0.178 µM; Kd [14]: 0.0828 µM; Kd [15]: 0.124 µM; Kd [16]: 0.23 µM
